T1: human TNFR2 (human, UniProt P20333 23-461)
T1 construct: expressed on the surface of CHO cells; also called HuTNFR2; TNFRSF1B
T1 sequence: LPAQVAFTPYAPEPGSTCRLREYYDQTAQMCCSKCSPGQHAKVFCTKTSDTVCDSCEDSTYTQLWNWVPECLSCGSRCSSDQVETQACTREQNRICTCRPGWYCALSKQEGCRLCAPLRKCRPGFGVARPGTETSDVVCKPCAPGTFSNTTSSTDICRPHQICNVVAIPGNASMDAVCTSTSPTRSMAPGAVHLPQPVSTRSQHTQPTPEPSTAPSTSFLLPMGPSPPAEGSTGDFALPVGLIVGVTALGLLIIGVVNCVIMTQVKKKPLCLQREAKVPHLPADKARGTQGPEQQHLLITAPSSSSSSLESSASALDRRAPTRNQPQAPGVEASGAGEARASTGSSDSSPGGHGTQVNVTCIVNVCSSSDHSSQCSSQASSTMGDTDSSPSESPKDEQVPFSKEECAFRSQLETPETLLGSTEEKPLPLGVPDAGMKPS


The binders below were run against T1, human TNFR2 (assay: binding to human TNFR2 CHO cells).

Binder	binding result
IgG 2031 (antibody, name in Kabat numbering, V domains shown, IgG) VH: QVQLVQSGAEVKKPGASVKVSCKVSGFSFPSSGVDWVRQAPGQGLEWLGVTHGSGSTHYNQKFQGRVTITKDTSKSTVYMELSSLRSEDTAVYYCASGERDEGFVYWGQGTLVTVSS VL: DIQLTQSPSFLSASVGDRVTITCKASQNVGTAVAWYQQKPGKAPKLLIYAASTLQSGVPSRFSGSGSGTEFTLTISSLQPEDFATYYCLQKSSYPLTFGGGTKVEIKR	no binding
IgG 2038 (antibody, name in Kabat numbering, V domains shown, IgG) VH: QVQLVQSGAEVKKPGASVKVSCKVSGFSFPSSGVDWVRQAPGQGLEWLGVTRGEGSTHYNQKFQGRVTITKDTSKSTVYMELSSLRSEDTAVYYCASGEHDEGFVYWGQGTLVTVSS VL: DIQLTQSPSFLSASVGDRVTITCKASQNVGTAVAWYQQKPGKAPKLLIYAASTLQSGVPSRFSGSGSGTEFTLTISSLQPEDFATYYCLQYSSYPLTFGGGTKVEIKR	no binding
IgG 2037 (antibody, name in Kabat numbering, V domains shown, IgG) VH: QVQLVQSGAEVKKPGASVKVSCKVSGFSFPSSGVDWVRQAPGQGLEWLGVTRGEGSTHYNQKFQGRVTITKDTSKSTVYMELSSLRSEDTAVYYCASGESTEGFVYWGQGTLVTVSS VL: DIQLTQSPSFLSASVGDRVTITCKASQNVGTAVAWYQQKPGKAPKLLIYAASTLQSGVPSRFSGSGSGTEFTLTISSLQPEDFATYYCLQYSSYPLTFGGGTKVEIKR	no binding
IgG 2048 (antibody, name in Kabat numbering, V domains shown, IgG) VH: QVQLVQSGAEVKKPGASVKVSCKVSGFSFPSSGVDWVRQAPGQGLEWLGVTLGHGSTHYNQKFQGRVTITKDTSKSTVYMELSSLRSEDTAVYYCASGEQDEGFVYWGQGTLVTVSS VL: DIQLTQSPSFLSASVGDRVTITCKASQNVGTAVAWYQQKPGKAPKLLIYAASTLQSGVPSRFSGSGSGTEFTLTISSLQPEDFATYYCLQYSSYPLTFGGGTKVEIKR	no binding
IgG 2033 (antibody, name in Kabat numbering, V domains shown, IgG) VH: QVQLVQSGAEVKKPGASVKVSCKVSGFSFPSSGVDWVRQAPGQGLEWLGVTKGQGSTHYNQKFQGRVTITKDTSKSTVYMELSSLRSEDTAVYYCASGESTEGFVYWGQGTLVTVSS VL: DIQLTQSPSFLSASVGDRVTITCKASQNVGTAVAWYQQKPGKAPKLLIYAASTLQSGVPSRFSGSGSGTEFTLTISSLQPEDFATYYCLQYSSYPLTFGGGTKVEIKR	no binding
IgG 2047 (antibody, name in Kabat numbering, V domains shown, IgG) VH: QVQLVQSGAEVKKPGASVKVSCKVSGFSFPSSGVDWVRQAPGQGLEWLGVTLGHGSTHYNQKFQGRVTITKDTSKSTVYMELSSLRSEDTAVYYCASGERDEGFVYWGQGTLVTVSS VL: DIQLTQSPSFLSASVGDRVTITCKASQNVGTAVAWYQQKPGKAPKLLIYAASTLQSGVPSRFSGSGSGTEFTLTISSLQPEDFATYYCLQYSSYPLTFGGGTKVEIKR	no binding
IgG 2045 (antibody, name in Kabat numbering, V domains shown, IgG) VH: QVQLVQSGAEVKKPGASVKVSCKVSGFSFPSSGVDWVRQAPGQGLEWLGVTLGHGSTHYNQKFQGRVTITKDTSKSTVYMELSSLRSEDTAVYYCASGESTEGFVYWGQGTLVTVSS VL: DIQLTQSPSFLSASVGDRVTITCKASQNVGTAVAWYQQKPGKAPKLLIYAASTLQSGVPSRFSGSGSGTEFTLTISSLQPEDFATYYCLQYSSYPLTFGGGTKVEIKR	no binding
IgG 2052 (antibody, name in Kabat numbering, V domains shown, IgG) VH: QVQLVQSGAEVKKPGASVKVSCKVSGFSFPSSGVDWVRQAPGQGLEWLGVTHGSGSTHYNQKFQGRVTITKDTSKSTVYMELSSLRSEDTAVYYCASGEQDEGFVYWGQGTLVTVSS VL: DIQLTQSPSFLSASVGDRVTITCKASQNVGTAVAWYQQKPGKAPKLLIYAASTLQSGVPSRFSGSGSGTEFTLTISSLQPEDFATYYCLQYSSYPLTFGGGTKVEIKR	no binding
IgG 2034 (antibody, name in Kabat numbering, V domains shown, IgG) VH: QVQLVQSGAEVKKPGASVKVSCKVSGFSFPSSGVDWVRQAPGQGLEWLGVTKGQGSTHYNQKFQGRVTITKDTSKSTVYMELSSLRSEDTAVYYCASGEHDEGFVYWGQGTLVTVSS VL: DIQLTQSPSFLSASVGDRVTITCKASQNVGTAVAWYQQKPGKAPKLLIYAASTLQSGVPSRFSGSGSGTEFTLTISSLQPEDFATYYCLQYSSYPLTFGGGTKVEIKR	no binding
IgG 2035 (antibody, name in Kabat numbering, V domains shown, IgG) VH: QVQLVQSGAEVKKPGASVKVSCKVSGFSFPSSGVDWVRQAPGQGLEWLGVTKGQGSTHYNQKFQGRVTITKDTSKSTVYMELSSLRSEDTAVYYCASGERDEGFVYWGQGTLVTVSS VL: DIQLTQSPSFLSASVGDRVTITCKASQNVGTAVAWYQQKPGKAPKLLIYAASTLQSGVPSRFSGSGSGTEFTLTISSLQPEDFATYYCLQYSSYPLTFGGGTKVEIKR	no binding
IgG 2043 (antibody, name in Kabat numbering, V domains shown, IgG) VH: QVQLVQSGAEVKKPGASVKVSCKVSGFSFPSSGVDWVRQAPGQGLEWLGVTFQEGSTHYNQKFQGRVTITKDTSKSTVYMELSSLRSEDTAVYYCASGERDEGFVYWGQGTLVTVSS VL: DIQLTQSPSFLSASVGDRVTITCKASQNVGTAVAWYQQKPGKAPKLLIYAASTLQSGVPSRFSGSGSGTEFTLTISSLQPEDFATYYCLQYSSYPLTFGGGTKVEIKR	no binding
IgG 2032 (antibody, name in Kabat numbering, V domains shown, IgG) VH: QVQLVQSGAEVKKPGASVKVSCKVSGFSFPSSGVDWVRQAPGQGLEWLGVTHGSGSTHYNQKFQGRVTITKDTSKSTVYMELSSLRSEDTAVYYCASGEQDEGFVYWGQGTLVTVSS VL: DIQLTQSPSFLSASVGDRVTITCKASQNVGTAVAWYQQKPGKAPKLLIYAASTLQSGVPSRFSGSGSGTEFTLTISSLQPEDFATYYCLQKSSYPLTFGGGTKVEIKR	no binding

Results, then the binder that gave them:

binding result	Binder
no binding	IgG 2036 (antibody, name in Kabat numbering, V domains shown, IgG) VH: QVQLVQSGAEVKKPGASVKVSCKVSGFSFPSSGVDWVRQAPGQGLEWLGVTKGQGSTHYNQKFQGRVTITKDTSKSTVYMELSSLRSEDTAVYYCASGEQDEGFVYWGQGTLVTVSS VL: DIQLTQSPSFLSASVGDRVTITCKASQNVGTAVAWYQQKPGKAPKLLIYAASTLQSGVPSRFSGSGSGTEFTLTISSLQPEDFATYYCLQYSSYPLTFGGGTKVEIKR
no binding	IgG 2046 (antibody, name in Kabat numbering, V domains shown, IgG) VH: QVQLVQSGAEVKKPGASVKVSCKVSGFSFPSSGVDWVRQAPGQGLEWLGVTLGHGSTHYNQKFQGRVTITKDTSKSTVYMELSSLRSEDTAVYYCASGEHDEGFVYWGQGTLVTVSS VL: DIQLTQSPSFLSASVGDRVTITCKASQNVGTAVAWYQQKPGKAPKLLIYAASTLQSGVPSRFSGSGSGTEFTLTISSLQPEDFATYYCLQYSSYPLTFGGGTKVEIKR
no binding	IgG 2039 (antibody, name in Kabat numbering, V domains shown, IgG) VH: QVQLVQSGAEVKKPGASVKVSCKVSGFSFPSSGVDWVRQAPGQGLEWLGVTRGEGSTHYNQKFQGRVTITKDTSKSTVYMELSSLRSEDTAVYYCASGERDEGFVYWGQGTLVTVSS VL: DIQLTQSPSFLSASVGDRVTITCKASQNVGTAVAWYQQKPGKAPKLLIYAASTLQSGVPSRFSGSGSGTEFTLTISSLQPEDFATYYCLQYSSYPLTFGGGTKVEIKR
no binding	IgG 2044 (antibody, name in Kabat numbering, V domains shown, IgG) VH: QVQLVQSGAEVKKPGASVKVSCKVSGFSFPSSGVDWVRQAPGQGLEWLGVTFQEGSTHYNQKFQGRVTITKDTSKSTVYMELSSLRSEDTAVYYCASGEQDEGFVYWGQGTLVTVSS VL: DIQLTQSPSFLSASVGDRVTITCKASQNVGTAVAWYQQKPGKAPKLLIYAASTLQSGVPSRFSGSGSGTEFTLTISSLQPEDFATYYCLQYSSYPLTFGGGTKVEIKR
no binding	IgG 2050 (antibody, name in Kabat numbering, V domains shown, IgG) VH: QVQLVQSGAEVKKPGASVKVSCKVSGFSFPSSGVDWVRQAPGQGLEWLGVTHGSGSTHYNQKFQGRVTITKDTSKSTVYMELSSLRSEDTAVYYCASGEHDEGFVYWGQGTLVTVSS VL: DIQLTQSPSFLSASVGDRVTITCKASQNVGTAVAWYQQKPGKAPKLLIYAASTLQSGVPSRFSGSGSGTEFTLTISSLQPEDFATYYCLQYSSYPLTFGGGTKVEIKR
no binding	IgG 2041 (antibody, name in Kabat numbering, V domains shown, IgG) VH: QVQLVQSGAEVKKPGASVKVSCKVSGFSFPSSGVDWVRQAPGQGLEWLGVTFQEGSTHYNQKFQGRVTITKDTSKSTVYMELSSLRSEDTAVYYCASGESTEGFVYWGQGTLVTVSS VL: DIQLTQSPSFLSASVGDRVTITCKASQNVGTAVAWYQQKPGKAPKLLIYAASTLQSGVPSRFSGSGSGTEFTLTISSLQPEDFATYYCLQYSSYPLTFGGGTKVEIKR
no binding	IgG 2042 (antibody, name in Kabat numbering, V domains shown, IgG) VH: QVQLVQSGAEVKKPGASVKVSCKVSGFSFPSSGVDWVRQAPGQGLEWLGVTFQEGSTHYNQKFQGRVTITKDTSKSTVYMELSSLRSEDTAVYYCASGEHDEGFVYWGQGTLVTVSS VL: DIQLTQSPSFLSASVGDRVTITCKASQNVGTAVAWYQQKPGKAPKLLIYAASTLQSGVPSRFSGSGSGTEFTLTISSLQPEDFATYYCLQYSSYPLTFGGGTKVEIKR
no binding	IgG 2051 (antibody, name in Kabat numbering, V domains shown, IgG) VH: QVQLVQSGAEVKKPGASVKVSCKVSGFSFPSSGVDWVRQAPGQGLEWLGVTHGSGSTHYNQKFQGRVTITKDTSKSTVYMELSSLRSEDTAVYYCASGERDEGFVYWGQGTLVTVSS VL: DIQLTQSPSFLSASVGDRVTITCKASQNVGTAVAWYQQKPGKAPKLLIYAASTLQSGVPSRFSGSGSGTEFTLTISSLQPEDFATYYCLQYSSYPLTFGGGTKVEIKR

Reference: patent US20230406951A1 (Pfizer, published 2023)
